Data on 6 molecules can be found in paper PMC2854237 (Insect biochemistry and molecular biology, 2010).

The target of series [1] is D. melanogaster ovulin (Acp26Aa), endogenous in male accessory glands (D. melanogaster (endogenous in male accessory glands)). Briefly: non-reducing SDS-PAGE and Western blot of SDS-stable complexes. (Immunoblotting shows a protein as a band on a membrane.)
For series [2] the target is unchanged. The series is described as above. The source holds these as a separate data set.
The target in series [3] is D. pseudoobscura ovulin C-terminal fragment, 6xHis-tagged (D. pseudoobscura). Briefly: cross-linking.
For series [4], the target named is D. yakuba ovulin C-terminal fragment, 6xHis-tagged (D. yakuba). Briefly: cross-linking.
Series [5] concerns the molecule itself. Briefly: cross-linking.
Series [6] deals with the molecule itself. Briefly: non-reducing SDS-PAGE and Western blot of SDS-stable complexes.

Where two headings read alike, the source gives them in different places.

What is called stoichiometry N is a count of units in the complex or per binding partner. Consider “D. melanogaster ovulin (Acp26Aa), endogenous in male accessory glands (natural protein)”, for which the stoichiometry N in series [1] and in series [2] was 2 in each case.
For the molecule “D. pseudoobscura ovulin C-terminal fragment, 6xHis-tagged (domain or fragment)”, the stoichiometry N in series [3] amounted to 2.
Take “D. yakuba ovulin C-terminal fragment, 6xHis-tagged (domain or fragment)”: in series [4], the stoichiometry N came out at 2.
Regarding NVRNTYRNKYLTLLKELSQKINNEIAKVATDVPTETNPSQGNLPTL (domain or fragment, UniProt P10333 219-264, looked up) [Wild-type D. melanogaster ovulin C45 (C-terminal fragment), 6xHis- and Xpress-tagged], the “stoichiometry N” value in series [5] turned out to be 2.

B1: D. simulans ovulin (putative ortholog), endogenous in male accessory glands (natural protein, UniProt P33737 19-255, looked up)
chain: NCDGEHQLDSSMDLKSDSTKSAVLKNVAPKNDATQAEIAKDDVALKSGKKGDYVMDIDVCTMPLDDYPINNSKSRKNSSTLPSQILTDKPNQGSNQIALKALKHRLLMEQNNNLFLRNHSVSLMNEIEARKTDIIQARQLNIDLELELEALKRKLSEMNAQNARKPTKSCKKRPSKDIAPPANQLQEVIVKNTYRNKYLTLLTQLAQKINYEIANVNNPATDVPTGKSPSEGNPSTT
Consider B1, for which, in series [6], the “stoichiometry N” value came out at 2.

B2: D. simulans ovulin C-terminal fragment, 6xHis-tagged (domain or fragment, UniProt P33737 156-255, looked up)
chain: RQLNIDLELELEALKRKLSEMNAQNARKPTKSCKKRPSKDIAPPANQLQEVIVKNTYRNKYLTLLTQLAQKINYEIANVNNPATDVPTGKSPSEGNPSTT
In the case of B2, in series [5], the “stoichiometry N” value was found to be 2.
